Legend:
[1] = test system: ^3H-uracil released in uracil-DNA glycosylase assays; assay: Uracil-DNA glycosylase activity after coupled transcription/translation in rabbit reticulocyte lysates; type: biochemical
Experimental: In vitro transcription/translation was performed with the TNT® transcription/translation system with […] as recommended by the manufacturer, using 200 ng of the expression constructs per 10 μl reaction volume. The mouse UNG1-pBluescript® construct was transcribed from the T3 promoter in the pBluescript® vector. The insert of mouse UNG2-pBluescript® was amplified by the polymerase chain reaction using Dynazyme® PCR kit, ligated into the pGEM-T vector and transcribed from the T7 promoter. […] Human UNG1 CDNA was transcribed from the T7 promoter as previously described (Slupphaug et al., 1995, Biochemistry, 34, p128-138). The samples were run on a 12% denaturing sodium dodecyl sulfate polyacrylamide gel (SDS-PAGE). The gel was dried, autoradiographed overnight and scanned on an LKB Ultroscan XL Enhanced Laser Densitometer. Uracil-DNA glycosylase activity was measured in parallel samples of the in vitro transcription/translation assay mixture containing unlabelled amino acids (Slupphaug et al., 1995, supra). A construct containing both promoters (pGL2-ProAB) linked to the luciferase gene was prepared by insertion of a PvuII/MluI fragment (the enzymes cleave in positions 418 and 1035, respectively) from the promoter region of the UNG gene into the SmaI-MluI sites of pGL2-ProB. […]

7-methylguanine = details: Roy et al. (1994); cited from earlier work
3-methyladenine = details: Roy et al. (1994); cited from earlier work
[2] = test system: [^3H]cytosine-labelled DNA; assay: Release of [3H]cytosine from ds or ss labelled DNA; type: biochemical; details: for C-ds, pmol excised per min per mg protein: double-stranded cytosine DNA
Experimental: (§1) To test enzymatic substrate specificities, 250 ng purified human “wild type” UDG (UNGΔ84), UNGΔ84Tyr147Ala or UNGΔ84Asn204Asp, were mixed with 200 ng ds- or ss-[^3H]cytosine-labelled DNA (150 mCi/mmol), or ds- or ss-[^3H]thymine-labelled DNA (100 mCi/mmol) in 10 mM NaCl, 20 mM Tris-HCl (pH 7.5), 1 mM EDTA, 1 mM dithiothreitol and 0.5 mg/ml bovine serum albumin (final concentrations) in 20 μl separate reactions. The final concentrations of the [^3H]cytosine-DNA (C) and [^3H]thymine-DNA (T) substrates were 6.5 μM and 10 μM, respectively. Release of radioactivity as a function of time was measured at 37° C. These conditions are later referred to as standard conditions. Substrate synthesis and processing of samples for scintillation counting were as described in Krokan and Wittwer (1981) Nucl. Acids Res., 9: 2599-2613. Single-stranded substrate was generated by boiling double-stranded substrate for 10 min, followed by rapid cooling on ice.
(§2) For measuring release of uracil from double-stranded (U-ds) or single-stranded (U-ss) DNA the various mutant enzymes (prepared as described in Example 1 and by analogous site-directed mutagenesis methods and identical expression and purification methods) were incubated with 200 ng ds- or ss-[^3H]dUMP-labelled DNA (500 mCi/mmol, 2 μM final concentration) in 20 μl separate reactions for 10 min under standard conditions as described in Example 1. For measuring release of [^3H]cytosine or [^3H]thymine, assays were performed as described in Example 1 using an incubation time of 10 min. Uracil inhibition was analysed by adding 5 mM uracil (final concentration) to a standard U-ds assay. 0 activity indicates activity below detection limit (10 pmol per mg protein per min) with 100 ng enzyme and 200 ng DNA substrate at standard conditions.

[^3H]dUMP-labelled DNA [3] = Kinetic parameters on uracil substrate; type: biochemical; details: for Kcat: calculated from Vmax assuming Mr=25000
Experimental: The final concentrations of the [^3H]cytosine-DNA (C) and [^3H]thymine-DNA (T) substrates were 6.5 μM and 10 μM, respectively. Release of radioactivity as a function of time was measured at 37° C. These conditions are later referred to as standard conditions. Substrate synthesis and processing of samples for scintillation counting were as described in Krokan and Wittwer (1981) Nucl. Acids Res., 9: 2599-2613. Single-stranded substrate was generated by boiling double-stranded substrate for 10 min, followed by rapid cooling on ice.
(§3) The kinetic parameters were determined using six different substrate concentrations to obtain the Km and Vmax values. Duplicate samples were incubated for 20 min using standard assay buffer conditions and substrates as specified. Km and Vmax were calculated using the computer program Enzpack, version 3.0 after the method of Wilkinson (1961) Biochem. J., 80: 324-332.

[4] = test system: E. coli ung^+ strain (NR8051); assay: Frequency of rifampicin resistant mutations, ung+ strain; type: cell-based
Experimental: An overnight culture of E. coli strains NR8051 and NR8052 (both recA^+, provided by Tomas Kunkel of National Institute of Environmental Health, USA) containing plasmids pTrc99A, pTUNGΔ84, UNGΔ84Tyr147Ala and UNGΔ84Asn204Asp were prepared as described in Example 1 and grown in LB-medium with ampicillin (100 μg/ml) at 30° C. The culture was then diluted 1:20 in fresh medium and cultured for 5 hours at 37° C. Induced culture contained 1 mM IPTG in the LB-medium. To determine the number of rifampicin resistant bacteria, 100 μl of the culture were mixed with 3 ml top agarose and poured on LB plates containing 100 μg/ml rifampicin and incubated overnight at 37° C. Colonies were counted and the number of rifampicin resistant colonies per 10^8 viable cells was calculated.

[^3H]dUMP-labelled DNA [5] = Release of uracil from ds or ss [3H]dUMP-labelled DNA; type: biochemical; details: for U-ds, pmol excised per min per mg protein: double-stranded uracil DNA, 0 = below detection limit (10 pmol per mg protein per min); for U-ds, pmol excised per min per mg protein / U-ss, pmol excised per min per mg protein: 2 μM, 10 min, 37° C.; for U-ss, pmol excised per min per mg protein: single-stranded uracil DNA, 0 = below detection limit
Experimental: as §1, §2

[^3H]dUMP-labelled DNA [6] = Uracil inhibition in standard U-ds assay; type: biochemical; details: 5 mM uracil added to standard U-ds assay
Experimental: as §2

[7] = test system: [^3H]thymine-labelled DNA; assay: Release of [3H]thymine from ds or ss labelled DNA; type: biochemical; details: for T-ds, pmol excised per min per mg protein: double-stranded thymine DNA; for T-ds, pmol excised per min per mg protein / T-ss, pmol excised per min per mg protein: 10 μM, 10 min, 0 = below detection limit; for T-ss, pmol excised per min per mg protein: single-stranded thymine DNA
Experimental: as §1, §2

[8] = test system: Escherichia coli recA^+ host cells (NR8051 and NR8052); assay: Survival of E. coli host cells expressing CDG or TDG; type: cell-based; details: for Survival of host cells after induction by IPTG: both NR8051 and NR8052, within 5 hrs; for Survival of recA^+ host cells carrying uninduced plasmid: data not shown
[9] = test system: [^3H]cytosine-labelled DNA; assay: Kinetic parameters on cytosine substrate; type: biochemical; details: for Kcat: calculated from Vmax assuming Mr=25000
Experimental: as §1, §3

[10] = test system: Escherichia coli DH5α (recA^−); assay: Cytotoxicity in recA- background; type: cell-based; details: E. coli DH5α, even without induction; data not shown
[11] = test system: [^3H]thymine-labelled DNA; assay: Kinetic parameters on thymine substrate; type: biochemical; details: for Kcat: calculated from Vmax assuming Mr=25000
Experimental: as §1, §3

[12] = 6.5 μM, 10 min, 0 = below detection limit

Molecule	C-ds, pmol excised per min per mg protein [2, 12]	Km ([^3H]dUMP-labelled DNA [3]; U-ds substrate)	Kcat ([^3H]dUMP-labelled DNA [3]; U-ds substrate)	Km ([^3H]dUMP-labelled DNA [3]; U-ss substrate)	Kcat ([^3H]dUMP-labelled DNA [3]; U-ss substrate)	Factor of increase of mutation frequency compared to host cells carrying parental plasmid pTrc99A ([4]; E. coli ung^+ cells, uninduced)	Factor of increase of mutation frequency compared to host cells carrying parental plasmid pTrc99A ([4]; induced ung^+ cells)	U-ds, pmol excised per min per mg protein ([^3H]dUMP-labelled DNA [5])	U-ss, pmol excised per min per mg protein ([^3H]dUMP-labelled DNA [5])	Inhibition 5 mM Uracil ([^3H]dUMP-labelled DNA [6])	T-ds, pmol excised per min per mg protein [7]	T-ss, pmol excised per min per mg protein [7]	Survival of host cells after induction by IPTG [8]	Survival of recA^+ host cells carrying uninduced plasmid [8]	Cytotoxicity in recA^− background [10]	other results
mouse UNG2: mouse homolog of human UNG2																dpm (^3H-uracil released) ([1]; after subtraction of background of 123 dpm): 856 dpm; Activity (dpm/area), relative specific activity ([1]; translation in rabbit reticulocyte lysates): 16784 dpm/area
N-methylpurine-DNA glycosylase: recombinant N-methylpurine-DNA glycosylase from mouse (protein, UniProt Q04841 1-333, looked up) DNA-3-methyladenine …: MPARGGSARPGRGALKPVSVTLLPDTEQPPFLGRARRPGNARAGSLVTGYHEVGQMPAPLSRKIGQKKQRLADSEQQQTPKERLLSTPGLRRSIYFSSPEDHSGRLGPEFFDQPAVTLARAFLGQVLVRRLADGTELRGRIVETEAYLGPEDEAAHSRGGRQTPRNRGMFMKPGTLYVYLIYGMYFCLNVSSQGAGACVLLRALEPLEGLETMRQLRNSLRKSTVGRSLKDRELCSGPSKLCQALAIDKSFDQRDLAQDDAVWLEHGPLESSSPAVVVAAARIGIGHAGEWTQKPLRFYVQGSPWVSVVDRVAEQMDQPQQTACSEGLLIVQK																Kcat for excision of 7-methylguanine (7-methylguanine): 0.2 min⁻¹; Kcat for excision of 3-methyladenine (3-methyladenine): 0.8 min⁻¹
Asn204Asp: human UDG mutant, codon 204 Asn changed to Asp; cytosine-DNA glycosylase (CDG) (protein) MGVFCLGPWGLGRKLRTPGKGPLQLLSRLCGDHLQAIPAKKAPAGQEEPGTPPSSPLSAEQLDRIQRNKAAALLRLAARNVPVGFGESWKKHLSGEFGKPYFIKLMGFVAEERKHYTVYPPPHQVFTWTQMCDIKDVKVVILGQDPYHGPNQAHGLCFSVQRPVPPPPSLENIYKELSTDIEDFVHPGHGDLSGWAKQGVLLLDAVLTVRAHQANSHKERGWEQFTDAVVSWLNQNSNGLVFLLWGSYAQKKGSAIDRKRHHVLQTAHPSPLSVYRGFFGCRHFSKTNELLQKSGKKPIDWKEL	3.0 × 10^2 pmol excised per min per mg protein	2400 nM	1.2 min⁻¹	2000 nM	15 min⁻¹	8.6	approximately 8.9	1.7 × 10^4 pmol excised per min per mg protein	1.6 × 10^5 pmol excised per min per mg protein	0%	0 pmol excised per min per mg protein	0 pmol excised per min per mg protein	less than 50%	equal to that of the parental cell carrying plasmid pTrc99A	highly cytotoxic	Preference for single stranded substrate ([2]; ss versus ds substrate): 10 fold; UDG activity remaining compared with wild type ([^3H]dUMP-labelled DNA [5]; uracil release, ds and ss): 0.04-0.16%; Km ([9]; C-ds substrate): 35 µM; Kcat ([9]; C-ds substrate): 0.12 min⁻¹; Km ([9]; C-ss substrate): 5.3 µM; Kcat ([9]; C-ss substrate): 0.39 min⁻¹
Tyr147Ala (protein) MGVFCLGPWGLGRKLRTPGKGPLQLLSRLCGDHLQAIPAKKAPAGQEEPGTPPSSPLSAEQLDRIQRNKAAALLRLAARNVPVGFGESWKKHLSGEFGKPYFIKLMGFVAEERKHYTVYPPPHQVFTWTQMCDIKDVKVVILGQDPAHGPNQAHGLCFSVQRPVPPPPSLENIYKELSTDIEDFVHPGHGDLSGWAKQGVLLLNAVLTVRAHQANSHKERGWEQFTDAVVSWLNQNSNGLVFLLWGSYAQKKGSAIDRKRHHVLQTAHPSPLSVYRGFFGCRHFSKTNELLQKSGKKPIDWKEL	0 pmol excised per min per mg protein	3500 nM	1.0 min⁻¹	300 nM	0.6 min⁻¹	39	~94.4	2.2 × 10^4 pmol excised per min per mg protein	2.2 × 10^4 pmol excised per min per mg protein	0%	1.3 × 10^3 pmol excised per min per mg protein	7.5 × 10^2 pmol excised per min per mg protein	< 10%	equal to that of the parental cell carrying plasmid pTrc99A	highly cytotoxic	C-ss, pmol excised per min per mg protein ([2]; single-stranded cytosine DNA, 6.5 μM, 10 min, 0 = below detection limit): 0 pmol excised per min per mg protein; Mutation frequency in vivo relative to CDG activity ([4]; Escherichia coli): 10 fold; Preference for single stranded substrate ([7]; ss versus ds substrate): decreased preference; Km ([11]; T-ds substrate): 6 µM; Kcat ([11]; T-ds substrate): 0.06 min⁻¹; Km ([11]; T-ss substrate): 1.4 µM; Kcat ([11]; T-ss substrate): 0.02 min⁻¹

Reference: patent US6713294B1, “DNA glycosylases and their use” (priority 1996, dated 2004)
